Molecular target: Mouse IMPα1 residues 70–529 (lacking the IMPβ binding domain) (mouse, UniProt P52293 70-529)
Test: crystal structure
Settings: both partners purified

Row | Binder | binding result
1 | VRRAGKYYSVEYCKRKID [HeV M NLS2 peptide (untagged)] | binds
2 | SGKRKKIRTIAAYPLGVGKS [HeV M NLS1 peptide (untagged)] | binds
